{
  "source": "patent US10206896B2",
  "about": "“Method of treating delayed healing of a wound associated with diabetes” (KUWAIT UNIVERSITY, priority 2014, dated 2019)",
  "molecules": {"B1": {"name": "EGF: mitotic growth factor (protein, UniProt P01133 23-1207, looked up)", "Pro-epidermal growth factor": "PQHWSCPEGTLAGNGNSTCVGPAPFLIFSHGNSIFRIDTEGTNYEQLVVDAGVSVIMDFHYNEKRIYWVDLERQLLQRVFLNGSRQERVCNIEKNVSGMAINWINEEVIWSNQQEGIITVTDMKGNNSHILLSALKYPANVAVDPVERFIFWSSEVAGSLYRADLDGVGVKALLETSEKITAVSLDVLDKRLFWIQYNREGSNSLICSCDYDGGSVHISKHPTQHNLFAMSLFGDRIFYSTWKMKTIWIANKHTGKDMVRINLHSSFVPLGELKVVHPLAQPKAEDDTWEPEQKLCKLRKGNCSSTVCGQDLQSHLCMCAEGYALSRDRKYCEDVNECAFWNHGCTLGCKNTPGSYYCTCPVGFVLLPDGKRCHQLVSCPRNVSECSHDCVLTSEGPLCFCPEGSVLERDGKTCSGCSSPDNGGCSQLCVPLSPVSWECDCFPGYDLQLDEKSCAASGPQPFLLFANSQDIRHMHFDGTDYGTLLSQQMGMVYALDHDPVENKIYFAHTALKWIERANMDGSQRERLIEEGVDVPEGLAVDWIGRRFYWTDRGKSLIGRSDLNGKRSKIITKENISQPRGIAVHPMAKRLFWTDTGINPRIESSSLQGLGRLVIASSDLIWPSGITIDFLTDKLYWCDAKQSVIEMANLDGSKRRRLTQNDVGHPFAVAVFEDYVWFSDWAMPSVMRVNKRTGKDRVRLQGSMLKPSSLVVVHPLAKPGADPCLYQNGGCEHICKKRLGTAWCSCREGFMKASDGKTCLALDGHQLLAGGEVDLKNQVTPLDILSKTRVSEDNITESQHMLVAEIMVSDQDDCAPVGCSMYARCISEGEDATCQCLKGFAGDGKLCSDIDECEMGVPVCPPASSKCINTEGGYVCRCSEGYQGDGIHCLDIDECQLGEHSCGENASCTNTEGGYTCMCAGRLSEPGLICPDSTPPPHLREDDHHYSVRNSDSECPLSHDGYCLHDGVCMYIEALDKYACNCVVGYIGERCQYRDLKWWELRHAGHGQQQKVIVVAVCVVVLVMLLLLSLWGAHYYRTQKLLSKNPKNPYEESSRDVRSRRPADTEDGMSSCPQPWFVVIKEHQDLKNGGQPVAGEDGQAADGSMQPTSWRQEPQLCGMGTEQGCWIPVSSDKGSCPQVMERSFHMPSYGTQTLEGGVEKPHSLLSANPLWQQRALDPPHQMELTQ", "modifications": "Pro-epidermal growth factor"}},
  "key": {"[1]": {"tested_on": "control fibroblasts (CFs)", "experiment": "In vitro scratch wound (cell migration) in control fibroblasts", "type": "cell-based, Wistar rat", "conditions": "24 hrs post-injury", "description": "(§1) Cell culture and HP treatment. […] Assessment of key fibroblast functions essential for wound healing. To assess cell proliferation, fibroblasts were seeded into a 96-well plate at a density of 1×10^4 per well and were allowed to adhere overnight in DMEM medium supplemented with 10% FCS. After arrest by incubation in serum-free medium for 24 hours, the cells were exposed to growth factors, and the incorporation of bromodeoxyuridine (BrdU) into DNA was determined using the manufacturer's protocol (Roche Diagnostics). Similarly, for the in vitro wound (migration) experiments, cultured fibroblasts were grown in six-well plates until they reached confluence. The medium was removed, the cells were washed with PBS 3× before culturing was continued in serum-free DMEM containing 0.5% BSA for an additional 24 hours. […] The rate of wound healing was quantified as described in the literature […] Caveolin-1 protein expression and PDGF-induced phosphorylation of Akt (20 min) and ERK (10 min) in 24-hr serum starved fibroblasts were determined using a Western-blotting-based technique. A proliferation index encompassing BrdU incorporation into DNA and cell cycle progression was evaluated in response to various growth factors (e.g., IGF, 50 ng; PDGF, 1 nM; EGF, 100 ng) in 24-hr serum starved fibroblast. […]"}, "[2]": {"tested_on": "control fibroblasts (CFs)", "experiment": "BrdU incorporation into DNA (cell proliferation) in control fibroblasts", "type": "cell-based, Wistar rat", "conditions": "24-hr serum starved CFs, vs starved cells; dose providing the maximum response (IGF 50 ng, PDGF 1 nM, EGF 100 ng)", "description": "as §1"}},
  "data": [
    {"molecule": "B1", "values": [
      {"measurement": "number of cells that migrated into the cell-free wound zone", "setting": "[1]", "value": "markedly increased"},
      {"measurement": "increase of proliferation rate (BrdU incorporation)", "setting": "[2]", "value": "~7.1", "unit": "fold"}
    ]}
  ]
}
